Legend:
[1] = biological target: T1, T cell receptor alpha/beta on purified primary human T cells (human, UniProt P01848 1-140; P01850 1-176); test: flow cytometry on primary human T cells, MeanFI (PE)
T1 construct: whole, on cells; also called human primary T cells
T1 TCR alpha (looked up): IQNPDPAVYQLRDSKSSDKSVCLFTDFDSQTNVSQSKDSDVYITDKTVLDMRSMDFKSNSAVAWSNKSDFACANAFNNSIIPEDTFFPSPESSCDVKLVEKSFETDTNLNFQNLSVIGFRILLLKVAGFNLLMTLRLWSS
T1 TCR beta (looked up): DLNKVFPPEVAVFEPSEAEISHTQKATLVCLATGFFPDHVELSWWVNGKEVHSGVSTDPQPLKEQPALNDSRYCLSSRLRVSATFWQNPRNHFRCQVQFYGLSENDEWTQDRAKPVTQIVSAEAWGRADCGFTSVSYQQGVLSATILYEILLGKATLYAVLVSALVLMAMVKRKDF

[2] = biological target: T2, EGFR on cells (UniProt P00533 25-1210, limits assumed); test: flow cytometry on HER14 cells, MeanFI (PE)
T2 construct: whole, on cells; also called HER14 cells (NIH3T3 transfected with EGFR); EGFR on LS174T and LoVo cells

[3] = biological target: T3, CEACAM5 on cells (UniProt P06731 35-685); test: flow cytometry, LS174T cells; design: Top: unit not given here
T3 construct: whole, on cells; also called CEACAM5 on LS174T and LoVo cells
T3 sequence (looked up): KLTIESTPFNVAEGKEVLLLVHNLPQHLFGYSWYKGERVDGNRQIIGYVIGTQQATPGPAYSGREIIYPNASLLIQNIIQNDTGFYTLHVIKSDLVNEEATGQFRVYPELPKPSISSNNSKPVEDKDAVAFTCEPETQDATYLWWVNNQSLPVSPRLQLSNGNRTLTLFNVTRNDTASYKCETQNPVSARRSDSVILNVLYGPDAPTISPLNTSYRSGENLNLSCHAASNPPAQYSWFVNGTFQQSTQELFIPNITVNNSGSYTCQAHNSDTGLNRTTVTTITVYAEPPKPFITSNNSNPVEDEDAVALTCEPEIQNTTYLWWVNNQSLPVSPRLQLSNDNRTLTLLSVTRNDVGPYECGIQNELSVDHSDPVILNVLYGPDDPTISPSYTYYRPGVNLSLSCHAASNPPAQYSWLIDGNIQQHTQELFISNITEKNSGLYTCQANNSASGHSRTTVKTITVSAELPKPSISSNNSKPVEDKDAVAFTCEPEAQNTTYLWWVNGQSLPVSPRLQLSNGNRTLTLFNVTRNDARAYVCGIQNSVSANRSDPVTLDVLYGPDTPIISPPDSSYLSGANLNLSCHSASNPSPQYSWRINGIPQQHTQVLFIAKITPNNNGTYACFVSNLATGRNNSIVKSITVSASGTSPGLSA

[4] = biological target: T3, CEACAM5 on cells; test: flow cytometry, LoVo cells; design: Top: unit not given here
[5] = biological target: T4, hCEACAM-5 (R&D Systems, #4128-CM) (human, UniProt P06731 35-685); test: SPR (Biacore T100), immobilized hCEACAM-5, 1:1 model
T4 construct: Bought protein; also called human CEACAM5 protein
T4 sequence (looked up): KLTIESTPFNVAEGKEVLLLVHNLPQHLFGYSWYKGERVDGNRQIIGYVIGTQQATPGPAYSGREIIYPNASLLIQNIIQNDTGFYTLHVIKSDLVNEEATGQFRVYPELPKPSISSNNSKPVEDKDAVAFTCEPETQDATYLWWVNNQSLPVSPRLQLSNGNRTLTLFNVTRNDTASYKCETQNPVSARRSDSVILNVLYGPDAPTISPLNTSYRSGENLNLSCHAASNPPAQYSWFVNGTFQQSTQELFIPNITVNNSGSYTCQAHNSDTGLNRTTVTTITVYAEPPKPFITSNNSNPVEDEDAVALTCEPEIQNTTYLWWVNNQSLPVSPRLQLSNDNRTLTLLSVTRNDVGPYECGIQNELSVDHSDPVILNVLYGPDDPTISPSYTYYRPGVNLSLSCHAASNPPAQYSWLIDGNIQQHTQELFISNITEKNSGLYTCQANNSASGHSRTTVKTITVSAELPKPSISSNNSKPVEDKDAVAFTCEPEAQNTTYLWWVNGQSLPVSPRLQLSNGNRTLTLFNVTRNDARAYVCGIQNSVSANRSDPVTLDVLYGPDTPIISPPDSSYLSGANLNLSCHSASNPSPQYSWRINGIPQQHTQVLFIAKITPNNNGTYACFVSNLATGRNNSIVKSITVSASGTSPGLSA
Description: (§1) Thereto, hCEACAM-5 (R&D Systems, #4128-CM) was immobilized onto a CM5 chip via amine coupling, using EDC and NHS chemistry. Purified Nanobodies were injected for 2 minutes at different concentrations (between 0.31 and 2000 nM) and allowed to dissociate for 15 min at a flow rate of 45 μl/min. In between sample injections, the surfaces were regenerated with 10 mM Glycine pH 1.5. HBS-EP+(Hepes buffer pH7.4) was used as running buffer.
(§2) The kinetic constants were calculated from the sensorgrams using the BIAEvaluation software (1:1 interaction). The affinity constants (KD) were calculated from resulting association and dissociation rate constants kon and koff, and are shown in Table C-29.

[6] = biological target: T5, human CD3 expressed on HEK293H cells (human, UniProt P04234 22-171; P09693 23-182; P07766 23-207; P20963 22-164); test: flow cytometry, HEK293H human CD3 cells
T5 construct: also called HEK293H human CD3; HEK293H CD3
Description: (§3) Binding of purified monovalent anti-TCR Nanobodies to human TCR(2IAN)/CD3 expressed on HEK293H cells was evaluated and compared with the binding to HEK293H cells transfected with human CD3 in flow cytometry, as outlined in Example 5. Dilution series of anti-TCR Nanobodies starting from 1 μM were applied to the cells. The parental HEK293H cell line was included as TCR/CD3 negative cell line.
Nanobodies clearly bound to human TCR(2IAN)/CD3 expressed on HEK293H but not to the HEK293H cells transfected with human CD3 only, nor to the HEK293H parental cell line. The EC50 values obtained from the dose response curve are depicted in Table C-2.

[7] = biological target: T1, T cell receptor alpha/beta on purified …; test: flow cytometry, purified primary human T cells
Description: Periplasmic extracts were screened for cell expressed TCR/CD3 binding using human TCR/CD3 transfected CHO-K1 or HEK293H cells and the respective CHO-K1 or HEK293H reference cell line in a mixed cell line setup. To this end, a large batch of the reference cell lines were labelled with 8 μM PKH26 and frozen. 5×10⁴ PKH labelled reference cells were mixed with 5×10⁴ target cells and incubated with periplasmic extracts for 30 min at 4′C, and washed 3 times. […] Samples were washed, resuspended in FACS Buffer (D-PBS from Gibco, with 10% FBS from Sigma and 0.05% sodium azide from Merck) and then analysed via a BD FACSArray. […] In this gate, 20,000 cells were counted during acquisition. Based on PKH26-SSC distribution, the PKH labelled parental population and the human TCR/CD3 unlabelled target population was selected. For these 2 populations the mean APC value was calculated.
Binding of purified monovalent anti-TCR Nanobodies to human TCR(2XN9)/CD3 expressed on CHO-K1 cells and to purified primary human T cells was evaluated in flow cytometry as outlined in Example 4.1.

[8] = biological target: T6, soluble recombinant cynomolgus TCR alpha/beta-zipper protein (cynomolgus/rhesus monkey); test: BLI (Octet RED384), immobilized cynomolgus TCR-zipper
T6 construct: Made in house in CHOK1SV cells; extracellular domains fused to a zipper protein; also called cynoTCR-zipper protein; not shown: zipper protein (O'Shea et al. 1993)
T6 V domain 1: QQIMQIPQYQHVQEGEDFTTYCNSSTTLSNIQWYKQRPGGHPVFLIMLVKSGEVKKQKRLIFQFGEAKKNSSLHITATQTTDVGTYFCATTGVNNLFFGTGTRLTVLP
T6 V domain 2: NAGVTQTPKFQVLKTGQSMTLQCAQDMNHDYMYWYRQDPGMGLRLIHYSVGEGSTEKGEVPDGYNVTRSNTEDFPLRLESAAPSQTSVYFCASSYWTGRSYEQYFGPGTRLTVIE
Description: Binding affinities were measured using Bio-Layer Interferometry (BLI) on an Octet RED384 instrument (Pall ForteBio Corp.). Recombinant human soluble TCR(2XN9)-zipper protein was covalently immobilized on amine-reactive sensors (ForteBio) via NHS/EDC coupling chemistry. For kinetic analysis, sensors were first dipped into running buffer (10 mM Hepes, 150 mM NaCl, 0.05% p20, pH7.4 from GE Healthcare Life Sciences) to determine baseline setting. […] Affinity constants (KD) were calculated applying a 1:1 interaction model using the ForteBio Data Analysis software.
Binding affinities of the monovalent anti-TCR Nanobodies were measured using Bio-Layer Interferometry (BLI) on an Octet RED384 instrument (Pall ForteBio Corp.) essentially as described in Example 7.1 using cynomolgus TCR α/β zipper.

[9] = biological target: T6, soluble recombinant cynomolgus TCR …; test: ELISA, coated soluble cynomolgus TCR-zipper
Description: Quality of the TCR α/β zipper proteins was assessed in an ELISA binding assay. Maxisorp 96-well ELISA plates (Nunc) were coated with 2 μg/mL soluble recombinant human TCR α/β (2XN9)-zipper protein or soluble recombinant cynomolgus TCR α/β-zipper protein. After an overnight incubation, plates were washed and blocked with PBS+1% casein for 1 h at room temperature. Next, plates were incubated with serial dilutions of either a functional flag tagged Nanobody or the functional mouse IgG anti-non-human primate/Rat TCRα/β antibody, clone R73 (eBioscience 16-5960) for 1 h at room temperature while shaking, washed again and incubated with mouse anti-flag-HRP (Sigma, #A8592) respectively rabbit anti-mouse-HRP (Dako, # P0260). After 1 h, TMB One Solution (Promega #G7431) was added. The reaction was stopped with 2M H₂SO₄ and the dose dependent binding was determined by measuring the OD at 450 nm using the Tecan sunrise 4 (FIG. 2).
Binding of purified monovalent anti-TCR Nanobodies to soluble recombinant cynomolgus TCR c/3 protein was evaluated in ELISA (as described in Example 1.2) using 2 μg/ml directly coated recombinant soluble cynomolgus TCR-α/β zipper protein.

[10] = biological target: T6, soluble recombinant cynomolgus TCR …; test: BLI (Octet RED384), immobilized cynomolgus TCR-zipper
[11] = biological target: T5, human CD3 expressed on HEK293H cells; test: flow cytometry on HEK293H human CD3 cells, MCF
Description: as §3

[12] = biological target: T2, EGFR on cells; test: flow cytometry, HER14 cells
[13] = biological target: T7, hEGFR (Sino Biological, #10001-H08H) (human, UniProt P00533 25-645); test: SPR (Biacore T100), immobilized hEGFR, 1:1 model
T7 construct: extracellular domain; Bought protein; also called hEGFR ECD; human EGFR protein
Description: as §1, with “hEGFR (Sino Biological, #10001-H08H)” for “hCEACAM-5 (R&D Systems, #4128-CM)”, “1.37” for “0.31”, “3000” for “2000”, “50” for “10”, “NaOH.” for “Glycine pH 1.5.”
as §2

[14] = biological target: T2, EGFR on cells; test: flow cytometry, LS174T cells; design: Top: unit not given here
[15] = biological target: T2, EGFR on cells; test: flow cytometry, LoVo cells; design: Top: unit not given here

B1: NbCEA5 (VHH)
VHH: EVQLVESGGGSVQAGGSLRLSCAASGDTYGSYWMGWFRQAPGKEREGVAAINRGGGYTVYADSVKGRFTISRDTAKNTVYLQMNSLRPDDTADYYCAASGVLGGLHEDWFNYWGQGTLVTVSS
notes: Monovalent Nanobody; also called CEA#1; monovalent anti-CEA Nanobody
With B1 the binding result [1] was “no binding (tested: 5e-7 M)”, the binding result [2] was “no binding (tested: 5e-7 M)” and the EC50 [3] was 0.59 nM. The Top [3] was 43000, the EC50 [4] was 1.2 nM and the Top [4] was 11200. For the same binder, the Kd [5] was 0.51 nM, the koff [5] was 0.00051 s⁻¹ and the kon [5] was 990000 M⁻¹ s⁻¹.

B2: T0170055A02 (VHH)
VHH: EVQLVESGGGLVQPGGSLRLSCAASGDVHKINILGWYRQAPAKEREMVAHITIGDATDYADSAKGRFTISRDEAKNMVYLQMNSLKPEDTAVYFCRAYSRIYPYNYWGQGTLVTVSS
notes: Monovalent anti-TCR Nanobody, cluster A; expressed in E. coli as triple Flag, His6-tagged protein; also called T0170PMP055A02; T01700055A02; not shown: C-terminal triple Flag-His6 tag of the E. coli-made monovalent Nanobody
B2 was tested, and the “MCF at 1 µM” value [6] was 1190 MCF, the EC50 [7] was 91 nM and the Kd [8] was 210 nM. It also gave a koff [8] of 0.024 s⁻¹, a kon [8] of 110000 M⁻¹ s⁻¹ and an EC50 [9] of 160 nM. The “fold lower affinity than for soluble recombinant human TCR α/β zipper” value [10] was 10 fold and the binding result [11] was “no binding (tested: 1e-6 M)”.

B3: T0170056G05 (VHH)
VHH: EVQLVESGGGLVQPGGSLRLSCVASGDVHKINFLGWYRQAPGKEREKVAHISIGDQTDYADSAKGRFTISRDESKNMVYLQMNSLKPEDTAVYFCRAFSRIYPYDYWGQGTLVTVSS
notes: Monovalent anti-TCR Nanobody, cluster A; expressed in E. coli as triple Flag, His6-tagged protein; also called T0170PMP056G05; T01700056G05; not shown: C-terminal triple Flag-His6 tag of the E. coli-made monovalent Nanobody
In the case of B3, the “MCF at 1 µM” value [6] is reported as 352 MCF, the EC50 [7] is reported as 91 nM and the Kd [8] is reported as 150 nM. For the same binder, the koff [8] was 0.016 s⁻¹, the kon [8] was 110000 M⁻¹ s⁻¹ and the binding result [2] was “no binding (tested: 5e-7 M)”. The EC50 [9] was 77 nM, the “fold lower affinity than for soluble recombinant human TCR α/β zipper” value [10] was 10 fold and the binding result [11] was “no binding (tested: 1e-6 M)”.

B4: EGFR038G07 (VHH)
VHH: EVQLVESGGGLVQAGGSLRLSCAASGRTFSSYVMGWFRQATGKEREFVATIAWDSGSTYYADSVKGRFTISRDNAKNTVHLQMNSLKPEDTAVYYCAASYNVYYNNYYYPISRDEYDYWGQGTLVTVSS
notes: Monovalent Nanobody; also called monovalent anti-EGFR Nanobody; EGFR monovalent Nanobody
For B4, the EC50 [12] was 1.8 nM, the Top [12] was 166000 and the binding result [1] was “no binding (tested: 5e-7 M)”. For the same binder, the Kd [13] was 0.763 nM, the koff [13] was 0.000426 s⁻¹ and the kon [13] was 558000 M⁻¹ s⁻¹. The EC50 [14] was 0.93 nM, the Top [14] was 32200 and the EC50 [15] was 0.54 nM. For the same binder, the Top [15] was 52300.

— patent US20190112392A1 (Ablynx, published 2019)
